# Measured values reported in patent US20240368285A1 (HEFEI TG IMMUNOPHARMA, published 2024).
# T1: MICA on human tumor cells (A-375, A549, HCT-15, MDA-MB-231) (human, UniProt Q29983 24-383)
# T1 construct: whole, on cells
# T1 sequence (looked up): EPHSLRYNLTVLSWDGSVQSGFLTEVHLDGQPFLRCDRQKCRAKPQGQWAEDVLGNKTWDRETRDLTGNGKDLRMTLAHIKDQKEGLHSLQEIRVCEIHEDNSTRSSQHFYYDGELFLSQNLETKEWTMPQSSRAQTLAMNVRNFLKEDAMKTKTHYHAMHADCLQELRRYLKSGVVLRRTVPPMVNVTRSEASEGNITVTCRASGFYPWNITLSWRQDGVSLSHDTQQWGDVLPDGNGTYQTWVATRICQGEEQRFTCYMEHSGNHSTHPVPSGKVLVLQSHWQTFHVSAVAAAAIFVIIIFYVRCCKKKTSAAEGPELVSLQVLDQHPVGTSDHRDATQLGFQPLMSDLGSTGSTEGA
# T2: MICA protein (SPR analyte) (human, UniProt Q29983 24-308, limits assumed)
# T2 construct: also called major histocompatibility complex class I chain related polypeptide A
# T2 sequence: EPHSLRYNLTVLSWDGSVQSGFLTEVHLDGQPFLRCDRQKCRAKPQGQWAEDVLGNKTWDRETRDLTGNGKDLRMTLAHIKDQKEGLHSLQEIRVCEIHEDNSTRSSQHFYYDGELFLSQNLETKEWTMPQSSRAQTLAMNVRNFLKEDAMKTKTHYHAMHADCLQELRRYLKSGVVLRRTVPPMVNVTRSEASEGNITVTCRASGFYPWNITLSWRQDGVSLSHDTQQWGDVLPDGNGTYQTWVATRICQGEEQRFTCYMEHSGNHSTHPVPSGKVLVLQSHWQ
# B1: affinity maturation antibody h5A1002 (antibody, V domains shown)
# VH: QVQLQESGPGLVKPSETLSLTCTVSGFSLTTYGGHWIRQPPGKGLEWIGMIWTDGWTDYNAAFISRVTISVDTSKNQFSLKLSSVTAADTAVYYCARKGHGYYYAMDYWGQGTLVTVSS
# VL: EIVLTQSPGTLSLSPGERATLSCTASSSVSSSYLHWYQQKPGQAPRLLIYSTSNLISGIPDRFSGSGSGTDFTLTISRLEPEDFAVYYCHQYHRSPFTFGQGTKLEIKR
# notes: Human IgG1, kappa; also called h5A1002-hIgG1
# Legend:
# MICA004α3-Fc = target: T3, MICA004α3-Fc (human); experiment: ELISA on coated MICA*004 α3-Fc (1 µg/ml), HRP anti-human Fab secondary, OD450
# T3 construct: also called MICA*004-Fc; domain α3 of MICA-004 Fc fusion protein
# T3 sequence (chain, as listed by the source limits assumed): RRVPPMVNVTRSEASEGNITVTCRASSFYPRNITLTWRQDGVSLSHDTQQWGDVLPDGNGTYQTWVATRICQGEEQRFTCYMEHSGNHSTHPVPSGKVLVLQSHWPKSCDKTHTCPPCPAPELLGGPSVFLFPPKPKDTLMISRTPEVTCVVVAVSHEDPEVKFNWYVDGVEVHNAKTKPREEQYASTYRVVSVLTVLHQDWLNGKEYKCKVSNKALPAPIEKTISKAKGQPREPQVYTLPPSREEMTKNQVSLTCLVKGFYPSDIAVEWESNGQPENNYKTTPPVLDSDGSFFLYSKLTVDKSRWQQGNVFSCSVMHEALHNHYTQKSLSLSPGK
# Experimental: After the antibodies were added, signal intensity was used for judging the binding characteristics of the antibodies and MICA and MICB.
# The fusion proteins (produced in the Applicant's laboratory; an amino acid sequence of MICA002α3-Fc is as set forth in SEQ ID NO: 22; an amino acid sequence of MICA005α3-Fc is as set forth in SEQ ID NO: 24; an amino acid sequence of MICA008α3-Fc is as set forth in SEQ ID NO: 25; an amino acid sequence of MICA004α3-Fc is as set forth in SEQ ID NO: 23; an amino acid sequence of MICB001α3-Fc is as set forth in SEQ ID NO: 26; and an amino acid sequence of MICB005α3-Fc is as set forth in SEQ ID NO: 27) were diluted to a concentration of 1 μg/ml with PBS and then added into a 96-well plate in a volume of 100 μl/well. The plate was placed at 4° C. overnight. The PBS in the 96-well plate was removed by sucking. After the plate was washed with PBST (that is, PBS having a pH value of 7.2 included 0.1 volume % of Tween 20) for 6 times, PBS containing 10% of BSA was added in a volume of 200 μl/well. The plate was incubated at 37° C. for 2 hours for blocking. The blocking solution was removed. […]
# MICB005α3-Fc = target: T4, MICB005α3-Fc; experiment: ELISA on coated MICB*005 α3-Fc (1 µg/ml), HRP anti-human Fab secondary, OD450
# T4 construct: also called MICB*005-Fc; domain α3 of MICB-005 Fc fusion protein
# T4 sequence (chain, as listed by the source limits assumed): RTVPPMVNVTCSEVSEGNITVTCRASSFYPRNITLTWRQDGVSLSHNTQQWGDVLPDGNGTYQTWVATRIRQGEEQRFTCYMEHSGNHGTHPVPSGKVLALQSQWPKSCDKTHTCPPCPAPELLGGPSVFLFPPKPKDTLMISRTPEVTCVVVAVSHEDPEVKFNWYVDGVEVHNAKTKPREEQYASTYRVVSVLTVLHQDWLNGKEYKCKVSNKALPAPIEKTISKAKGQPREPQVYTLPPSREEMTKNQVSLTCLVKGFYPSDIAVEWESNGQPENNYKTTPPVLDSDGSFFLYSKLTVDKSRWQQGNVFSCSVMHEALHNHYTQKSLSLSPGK
# [1] = target: T1, MICA on human tumor cells (A-375, A549, …); experiment: flow cytometry on A-549 cells, Alexa-647 goat anti-human secondary, % binding ratio
# Experimental: (2) Tumor cells were diluted to a density of 2×10⁶/mL with PBS and added into a 1.5 ml EP tube in a volume of 100 l/tube. 10 l/tube of goat serum was added into the EP tube; and blocking was conducted at 4° C. for 30 min. […] The tube was incubated at 4° C. for 30 min. 1 mL of PBS was added into the EP tube, and centrifugation was conducted 4° C. at a rate of 3,500 rpm for 5 min. The supernatant was removed. Then, the EP tube was washed once with the PBS, and the supernatant was removed after centrifugation. The cells were resuspended with PBS in a volume of 100 l/tube. An Alexa-647 labeled goat anti-human secondary antibody (purchased from Jackson lab) was added into the tube in a volume of 1 l/tube, and the tube was incubated in the dark at 4° C. for 30 min. The tube was washed twice with PBS, and the supernatant was removed after centrifugation. The cells were resuspended with the PBS in a volume of 200 l/tube, and detection was conducted by a flow cytometer. The results are as shown in FIG. 17A and FIG. 17B, FIG. 18A and FIG. 18B, FIG. 19A and FIG. 19B, and FIG. 20A and FIG. 20B.
# [2] = target: T2, MICA protein (SPR analyte); experiment: SPR, Biacore 8K
# Experimental: In a Biacore 8K (Cytiva) system, the antibody was diluted to a concentration of 10 µg/mL with running buffer (HBS-EP), and the antibody was conjugated onto a protein A (Cytiva, 29127556) chip at a flow rate of […].
# Kinetic and affinity data of binding of the maternal antibody h5A1 and the affinity maturation antibody h5A1002 and MICA were detected.
# MICB001α3-Fc = target: T5, MICB001α3-Fc; experiment: ELISA on coated MICB*001 α3-Fc (1 µg/ml), HRP anti-human Fab secondary, OD450
# T5 construct: also called MICB*001-Fc; domain α3 of MICB-001 Fc fusion protein
# T5 sequence (chain, as listed by the source limits assumed): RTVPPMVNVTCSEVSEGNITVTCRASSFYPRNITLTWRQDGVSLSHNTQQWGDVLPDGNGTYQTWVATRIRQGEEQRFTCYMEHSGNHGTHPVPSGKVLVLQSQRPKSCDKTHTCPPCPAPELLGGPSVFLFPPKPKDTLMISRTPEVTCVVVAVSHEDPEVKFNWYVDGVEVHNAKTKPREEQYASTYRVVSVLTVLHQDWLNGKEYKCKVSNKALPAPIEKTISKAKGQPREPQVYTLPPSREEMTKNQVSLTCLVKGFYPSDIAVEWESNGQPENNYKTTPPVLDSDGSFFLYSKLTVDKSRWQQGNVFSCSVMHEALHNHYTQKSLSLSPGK
binder,measurement,setting,value
B1,EC50 (read off the curve),MICA004α3-Fc,~0.07 µg/mL
same,EC50 (read off the curve),MICB005α3-Fc,~0.04 µg/mL
same,EC50 (read off the curve),[1],~0.4 µg/mL
same,fold increase of affinity against maternal antibody h5A1,[2],~39 times
same,EC50 (read off the curve),MICB001α3-Fc,~0.03 µg/mL
